Measured values from paper PMC7402097, “Reduction of Protein Bound Methionine Sulfoxide by a Periplasmic Dimethyl Sulfoxide Reductase” (Antioxidants, 2020).

How the values were obtained:
[1] = substrate: C[S+](C)[O-]; experiment: purified protein; conditions: Britton-Robinson buffer pH 6.0, 46 nM DorA, electron donor dithionite-reduced benzyl viologen
[2] = substrate: C[S+]([O-])CC[C@H](N)C(=O)O; experiment: purified protein; format: biochemical, Cereibacter sphaeroides; conditions: Britton-Robinson buffer pH 6.0, 46 nM DorA, electron donor dithionite-reduced benzyl viologen, R,S diastereomer mixture used, KM already divided by 2 to count only the S-diastereomer

B1: DorA DMSO reductase (Cereibacter sphaeroides) (protein)
chain: EGLANGEVMSGCHWGVFKARVENGRAVAFEPWDKDPAPSHQLPGVLDSIYSPTRIKYPMVRREFLEKGVNADRSTRGNGDFVRVTWDEALDLVARELKRVQESYGPTGTFGGSYGWKSPGRLHNCQVLMRRALNLAGGFVNSSGDYSTAAAQIIMPHVMGTLEVYEQQTAWPVVVENTDLMVFWAADPMKTNEIGWVIPDHGAYAGMKALKEKGTRVICINPVRTETADYFGADVVSPRPQTDVALMLGMAHTLYSEDLHDKDFLENCTTGFDLFAAYLTGESDGTPKTAEWAAEICGLPAEQIRELARSFVAGRTMLAAGWSIQRMHHGEQAHWMLVTLASMIGQIGLPGGGFGLSYHYSNGGSPTSDGPALGGISDGGKAVEGAAWLSESGATSIPCARVVDMLLNPGGEFQFNGATATYPDVKLAYWAGGNPFAHHQDRNRMLKAWEKLETFIVQDFQWTATARHADIVLPATTSYERNDIESVGDYSNRAILAMKKVVDPLYEARSDYDIFAALAERLGKGAEFTEGRDEMGWISSFYEAAVKQAEFKNVAMPSFEDFWSEGIVEFPITEGANFVRYADFREDPLFNPLGTPSGLIEIYSKNIEKMGYDDCPAHPTWMEPAERLGGAGAKYPLHVVASHPKSRLHSQLNGTSLRDLYAVAGHEPCLINPADAAARGIADGDVLRVFNDRGQILVGAKVSDAVMPGAIQIYEGGWYDPLDPSEEGTLDKYGDVNVLSLDVGTSKLAQGNCGQTILADVEKYAGAPVTVTVFDTPKGA
notes: full-length dorA with C-terminal 6-His tag (kept), pIND4-DorA-His; expressed in R. sphaeroides f. sp. denitrificans IL106 dorA- (host) and purified from periplasm; monomeric
[1]
  Km: 1.8 ± 0.4 µM
  kcat: 3.9 s⁻¹
  kcat/Km: 2.2e+06 M⁻¹ s⁻¹
[2]
  Km: 68.8 ± 5.7 µM
  kcat: 4.2 ± 0.1 s⁻¹
  kcat/Km: 61000 M⁻¹ s⁻¹
